Results on one substance are retold here after patent publication US20220357345A1.

Assay [1] deals with Aβ1-42 labelled with HiLyte Fluor 488 (UniProt P05067). Briefly: microscale thermophoresis (Monolith NT.115); labelled Aβ1-42 kept at 4 °C for one week (oligomers and fibres), PPP serially diluted.
The target is the same in assay [2]. Briefly: microscale thermophoresis (Monolith NT.115); HiLyte Fluor 488-labelled Aβ1-42 at 80 nM in PBS, PPP serially diluted; freshly dissolved Aβ1-42.

UniProt P05067, sequence (P05067 672-713 limits assumed): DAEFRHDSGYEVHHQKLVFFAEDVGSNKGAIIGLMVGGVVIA

“Aβ-binding polymer (phagocytosis-promoting peptide, PPP): small peptide chain randomly synthesized from glutamic acid, lysine, alanine and tyrosine, molecular weight 4 kD to 52 kD (average 6.5 kD)”: the Kd in assay [1] was 0.0254 µM; in assay [2], 0.0066 µM.

A word on the Kd: it is a measure of binding affinity in units of concentration. Low values mean a tighter complex, high ones a looser complex.
